This data set deals with T1, HA-Etv2 (Mus musculus) (UniProt P41163).
T1 sequence: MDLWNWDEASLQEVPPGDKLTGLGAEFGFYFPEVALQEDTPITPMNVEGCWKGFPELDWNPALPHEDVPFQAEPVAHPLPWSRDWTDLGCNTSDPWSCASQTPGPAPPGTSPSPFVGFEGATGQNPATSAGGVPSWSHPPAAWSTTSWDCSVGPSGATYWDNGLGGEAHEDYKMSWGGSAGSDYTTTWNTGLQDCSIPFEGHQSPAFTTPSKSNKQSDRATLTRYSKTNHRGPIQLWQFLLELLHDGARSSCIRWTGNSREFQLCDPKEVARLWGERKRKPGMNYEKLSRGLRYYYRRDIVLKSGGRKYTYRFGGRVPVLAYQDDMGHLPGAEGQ
The conditions noted are these: ChIP-qPCR with anti-HA, Dox-induced EBs. (Real-time PCR tracks product formation cycle by cycle.)

In the case of “miR-130a upstream promoter region (ChIP amplicon)”, the binding signal (fold enrichment) stood at 15.
